Here are results for 5 molecules from patent US20050037969A1.

Ends that are not written are not given here. * marks the point of attachment. Biotin = O=C1N[C@H]2[C@H](CS[C@H]2CCCCC(=O)*)N1

The target of assay [1] is GST-TIP-1 PDZ domain fusion protein (Homo sapiens) (UniProt O14907). The assay can be described thus: competition for TIP1 binding, reference CD95.
Assay [2] shares this target. The experiment in a line: G assay competition against 20 uM CD95 20-mer.
Assay [3] has the same target. The assay can be described thus: G assay competition against CD95 20-mer.
The target in assay [4] is GST-WWP3 (MAGI-1) fusion protein (PDZ domains 1-2) (Homo sapiens) (UniProt Q96QZ7). The experiment in a line: G assay format, competition against labeled DNAM-1 peptide.
In assay [5] the target is GST-DLG1 fusion protein (PDZ domains 1-2) (human) (UniProt Q12959). The experiment in a line: G assay titration of biotinylated peptide on plate-bound GST-PDZ, apparent affinity from saturation fit.
Assay [6] addresses GST-NeDLG fusion protein (PDZ domains 1-2) (Mus musculus (Mouse)) (UniProt P70175). The description is as above.
Assay [7] has as its target GST-TIP-1 PDZ domain fusion protein (Homo sapiens) (UniProt O14907). The experiment in a line: G assay competition against 20 uM TAX 20-mer.

As usually defined, the IC50 is the concentration that inhibits the measured activity by half. Read a high IC50 as a need for much substance. As to KHFRETEV [8-mer peptide corresponding to the C-terminus of TAX], the fold better competition for binding to TIP1 than CD95 in assay [1] turned out to be 1000 fold. Besides, the IC50 in assay [2] was 20 to 100 µM. The molecule further gave a concentration that effectively blocked binding in assay [3] of 100 µM.

Regarding SRRPKTRV [peptide corresponding to the C-terminal 8 amino acids of DNAM-1], the inhibitor concentration giving at least 50% inhibition in assay [4] was 20 to 200 µM.

Turning to Biotin-KDITSDSENSNFRNEIQSLV [CD95 (Fas) C-terminal peptide AA13L, biotinylated], the Kd in assay [5] and in assay [6] was 54 µM throughout.

For the molecule Biotin-ISGTPTSTMVHGMTSSSSVV [Clasp-2 C-terminal peptide AA2L, biotinylated], the values for the Kd in assay [5] and in assay [6] were 21 µM and 7.5 µM, respectively.

Molecule RNEIQSLV [Fas (CD95) 8-mer competitor peptide RNEIQSLV (unlabeled)] yielded an IC50 in assay [7] of 500 µM.
